# Reference: the supplement of paper PMC7125110
# ± gives the standard error. For part of these data: This sample holds only a part of the variants without activity.
# B1: glmS ribozyme (parent)
# chain: AUAAAAGCGCCAGAACUACAGAAAUGUAGUUGACGAGGAGGAGGUUUAUCGAAUUUUCGGCGGAUGCCUCCAAA
# Tests used:
# Settings in all cases: with glucosamine-6-phosphate
# [1] = variants of: B1; assay: kcat; higher = faster cleavage; RNA array
# Method in brief: (§1)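 In situ transcription by E. coli RNA polymerase produced barcoded ribozyme variants on sequenced MiSeq chips, and a hybridised Cy3 probe tracked them at 37 °C. Glucosamine-6-phosphate was flowed in at 40 μM to 10 mM in HEPES/KCl/Mg(OAc)2 buffer. kcat and KM were taken from weighted Michaelis–Menten fits of kobs values from exponential decay fits.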
# [2] = variants of: B1; assay: KM; higher = weaker cofactor use; RNA array
# Method in brief: as §1
# [3] = variants of: B1; assay: self-cleavage kobs at 160 uM GlcN6P; higher = faster cleavage; RNA array
# Method in brief: as §1
# [4] = variants of: B1; assay: self-cleavage kobs at 640 uM GlcN6P; higher = faster cleavage; RNA array
# Method in brief: as §1
# [5] = variants of: B1; assay: self-cleavage kobs at 2500 uM GlcN6P; higher = faster cleavage; RNA array
# Method in brief: as §1
# [6] = variants of: B1; assay: self-cleavage kobs at 10000 uM GlcN6P; higher = faster cleavage; RNA array
# Method in brief: as §1
# [7] = variants of: B1; assay: self-cleavage kobs at 40 uM GlcN6P; higher = faster cleavage; RNA array
# Method in brief: as §1
variant,measurement,setting,value
AUAAAAGCGCCAGAUCUACAGAAAUGUAGUUGACGAGAAGGAGGUUUAUCGAAUUUUCGGCGGAUGAUUCCAAA [A15U G38A C67A C68U],kcat,[1],2.38e-05 ± 7.1e-06 s⁻¹
AUAAAAGCGCCAGAUCUACAGAAAUGUAGUUGACGAGGACGAGGUUUAUCGAAUUUUCGGCGGAUGCCUCCAAA [A15U G40C],kcat,[1],0.000282 ± 2.6e-05 s⁻¹
same,KM,[2],1070 ± 230 µM
same,self-cleavage kobs at 160 uM GlcN6P,[3],3.7e-05 ± 1.5e-05 s⁻¹
same,self-cleavage kobs at 640 uM GlcN6P,[4],0.00011 ± 1.4e-05 s⁻¹
same,self-cleavage kobs at 2500 uM GlcN6P,[5],0.000162 ± 3.3e-05 s⁻¹
same,self-cleavage kobs at 10000 uM GlcN6P,[6],0.000269 ± 3e-05 s⁻¹
AUAAAAGCGCCAGAUCUACAGAAAUGUAGUUGACGAGGAAGAGGUUUAUCGAAUUUUCGGCGGAUGCCUCCAAA [A15U G40A],kcat,[1],0.000675 ± 9.5e-05 s⁻¹
same,KM,[2],912 ± 230 µM
same,self-cleavage kobs at 40 uM GlcN6P,[7],4.43e-05 ± 1.2e-05 s⁻¹
same,self-cleavage kobs at 160 uM GlcN6P,[3],8.75e-05 ± 1.8e-05 s⁻¹
same,self-cleavage kobs at 640 uM GlcN6P,[4],0.000282 ± 4.7e-05 s⁻¹
same,self-cleavage kobs at 2500 uM GlcN6P,[5],0.000515 ± 0.0001 s⁻¹
same,self-cleavage kobs at 10000 uM GlcN6P,[6],0.000611 ± 0.0001 s⁻¹
AUAAAAGCGCCAGAUCUACAGAAAUGUAGUUAACGAGGAGGAGGUUUAUCGAAUUUUCGGCGGAUGCCUCCAAA [A15U G32A],kcat,[1],0.00116 ± 0.00015 s⁻¹
same,KM,[2],4440 ± 850 µM
same,self-cleavage kobs at 640 uM GlcN6P,[4],0.000153 ± 2.9e-05 s⁻¹
same,self-cleavage kobs at 2500 uM GlcN6P,[5],0.000388 ± 9.4e-05 s⁻¹
same,self-cleavage kobs at 10000 uM GlcN6P,[6],0.00082 ± 0.00016 s⁻¹
AUAAAAGCGCCAGAUCUACAGAAAUGUAGUUGCCGAGGAGGAGGUUUAUCGAAUUUUCGGCGGAUGCCUCCAAA [A15U A33C],kcat,[1],5.35e-05 ± 2.5e-06 s⁻¹
same,KM,[2],813 ± 280 µM
same,self-cleavage kobs at 40 uM GlcN6P,[7],< 1e-05 s⁻¹
same,self-cleavage kobs at 2500 uM GlcN6P,[5],4.34e-05 ± 1.3e-05 s⁻¹
same,self-cleavage kobs at 10000 uM GlcN6P,[6],4.91e-05 ± 6e-06 s⁻¹
AUAAAAGCGCCAGAUCUACAGAAAUGUAGUUGACGAGGAGGAGGUUUAUAGAAUUUUCGGCGGAUGCCUCCAAA [A15U C50A],kcat,[1],1.29e-05 ± 3.8e-06 s⁻¹
AUAAAAGCGCCAGAUCUACAGAAAUGUAGUUGACGAGGAGGAGGUUUAUCGAGUUUUCGGCGGAUGCCUCCAAA [A15U A53G],kcat,[1],0.00765 ± 0.0013 s⁻¹
same,KM,[2],1990 ± 520 µM
same,self-cleavage kobs at 40 uM GlcN6P,[7],0.00019 ± 1.8e-05 s⁻¹
same,self-cleavage kobs at 160 uM GlcN6P,[3],0.000531 ± 6.8e-05 s⁻¹
same,self-cleavage kobs at 640 uM GlcN6P,[4],0.0015 ± 0.0002 s⁻¹
same,self-cleavage kobs at 2500 uM GlcN6P,[5],0.00373 ± 0.00055 s⁻¹
same,self-cleavage kobs at 10000 uM GlcN6P,[6],0.00681 ± 0.00053 s⁻¹
AUAAAAGCGCCAGAUCUACAGAAAUGUAGUUGACGGGGAGGAGGUUUAUCGAAUUUUCGGCGGAUGCCCACAAA [A15U A36G U69C C70A],kcat,[1],1.84e-05 ± 4.3e-06 s⁻¹
AUAAAAGCGCCAGAUCUACAGAAAUGUAGUUGACGAGGAGGAGGUUUAUCGAAUUUUCGGAGGAUGCCUCCAAA [A15U C61A],kcat,[1],< 1e-05 s⁻¹
same,KM,[2],829 ± 70 µM
same,self-cleavage kobs at 40 uM GlcN6P,[7],< 1e-05 s⁻¹
AUAAAAGCGCCAGAUCUACAGAAAUGUACUUGACGAGGAGGAGGUUUAUCGAAUUUUCGGCGGAUGCCUCCAAA [A15U G29C],kcat,[1],0.00199 ± 0.00051 s⁻¹
same,KM,[2],2340 ± 910 µM
same,self-cleavage kobs at 40 uM GlcN6P,[7],4.56e-05 ± 9.9e-06 s⁻¹
same,self-cleavage kobs at 160 uM GlcN6P,[3],0.000116 ± 3.3e-05 s⁻¹
same,self-cleavage kobs at 640 uM GlcN6P,[4],0.000432 ± 7.6e-05 s⁻¹
same,self-cleavage kobs at 2500 uM GlcN6P,[5],0.000809 ± 0.00016 s⁻¹
same,self-cleavage kobs at 10000 uM GlcN6P,[6],0.00191 ± 0.0003 s⁻¹
AUAAAAGCGCCAGAUCUACAGAAAUGUAGUUGACGAGGAGGAGGUUUAUCGAAUUUUCGGCGGAUGCCUCAAAA [A15U C71A],kcat,[1],0.000688 ± 4.8e-05 s⁻¹
same,KM,[2],1050 ± 120 µM
same,self-cleavage kobs at 40 uM GlcN6P,[7],3.22e-05 ± 8.9e-06 s⁻¹
same,self-cleavage kobs at 160 uM GlcN6P,[3],8.62e-05 ± 8.8e-06 s⁻¹
same,self-cleavage kobs at 640 uM GlcN6P,[4],0.000278 ± 3.4e-05 s⁻¹
same,self-cleavage kobs at 2500 uM GlcN6P,[5],0.000497 ± 6.4e-05 s⁻¹
same,self-cleavage kobs at 10000 uM GlcN6P,[6],0.000605 ± 7e-05 s⁻¹
AUAAAAGCGCCAGAUCUACAGAAAUGUAGUUGACGAGGAGGAGGUUUAUCGAAUUUUCGGCGGAUGCCUGCAAA [A15U C70G],kcat,[1],7.6e-05 ± 6.8e-06 s⁻¹
same,KM,[2],175 ± 85 µM
same,self-cleavage kobs at 160 uM GlcN6P,[3],4.66e-05 ± 1.1e-05 s⁻¹
same,self-cleavage kobs at 640 uM GlcN6P,[4],5.16e-05 ± 7.6e-06 s⁻¹
same,self-cleavage kobs at 2500 uM GlcN6P,[5],7.05e-05 ± 8.4e-06 s⁻¹
same,self-cleavage kobs at 10000 uM GlcN6P,[6],8.19e-05 ± 9.8e-06 s⁻¹
AUAAAAGCGCCAGAUCUACAGAAAUGUAGUUGACGAGGCGGAGGUUUAUCGAAUUUUCGGCGGAUGCCUCCAAA [A15U A39C],kcat,[1],0.00112 ± 0.00025 s⁻¹
same,KM,[2],1960 ± 980 µM
same,self-cleavage kobs at 40 uM GlcN6P,[7],3.4e-05 ± 6.3e-06 s⁻¹
same,self-cleavage kobs at 640 uM GlcN6P,[4],0.000287 ± 3.8e-05 s⁻¹
same,self-cleavage kobs at 2500 uM GlcN6P,[5],0.000499 ± 5.7e-05 s⁻¹
same,self-cleavage kobs at 10000 uM GlcN6P,[6],0.00102 ± 7.3e-05 s⁻¹
AUAAAAGCGCCAGAUCUACAGAAAUGUAGUUGACGAGGAGGAGGUUUAUCGUAUUUUCGGCGGAUGCCUCCAAA [A15U A52U],kcat,[1],0.000143 ± 1.2e-05 s⁻¹
same,KM,[2],1610 ± 370 µM
same,self-cleavage kobs at 40 uM GlcN6P,[7],< 1e-05 s⁻¹
same,self-cleavage kobs at 640 uM GlcN6P,[4],3.6e-05 ± 1e-05 s⁻¹
same,self-cleavage kobs at 2500 uM GlcN6P,[5],9.15e-05 ± 9.9e-06 s⁻¹
same,self-cleavage kobs at 10000 uM GlcN6P,[6],0.000119 ± 1.5e-05 s⁻¹
AUAAAAGCGCCAGAUCUACAGAAAUGUAGUUGACGAGGAGGAGGUUUAUCGAAUUUUCGGCGGGUGCCUCCAAA [A15U A64G],kcat,[1],0.00706 ± 0.00091 s⁻¹
same,KM,[2],1990 ± 370 µM
same,self-cleavage kobs at 40 uM GlcN6P,[7],0.000142 ± 2.5e-05 s⁻¹
same,self-cleavage kobs at 160 uM GlcN6P,[3],0.00053 ± 0.0001 s⁻¹
same,self-cleavage kobs at 640 uM GlcN6P,[4],0.00182 ± 0.00029 s⁻¹
same,self-cleavage kobs at 2500 uM GlcN6P,[5],0.00336 ± 0.00058 s⁻¹
same,self-cleavage kobs at 10000 uM GlcN6P,[6],0.0066 ± 0.001 s⁻¹
